Data on three proteins can be found in publication PMC4658334, “Reassessment of MxiH subunit orientation and fold within native Shigella T3SS needles using surface labelling and solid-state NMR” (Journal of Structural Biology, 2015).

Data set [1] concerns the molecule itself. The experiment in a line: negative-stain electron microscopy of purified needles; purified needle preparations, about 0.1 μg/ml, on carbon-coated grids, stained with 1% phosphotungstic acid pH 7; self-association of the subunit into the needle polymer.
Data set [2] deals with the molecule itself. The experiment in a line: solid-state NMR; 5-7 mg of uniformly 13C,15N labelled natively grown needles packed in a 1.9 mm rotor; 20.0 T, 18 kHz MAS; self-association of the subunit into the needle polymer.

Positions count from the first letter of the chain named.

B1: MxiH L32C (natural protein)
chain: MSVTVPNDDWTLSSLSETFDDGTQTLQGELTCALDKLAKNPSNPQLLAEYQSKLSEYTLYRNAQSNTVKVIKDVDAAIIQNFR
notes: MxiH, needle subunit of the T3SS, Shigella flexneri, with leucine 32 changed to cysteine; cloned into pACT3 via NdeI and HindIII; Printed mass of the unlabelled subunit is 9123.5 Da; source: S. flexneri, expressed from pACT3 with 200 μM IPTG; needles purified
For B1, the binding result in data set [1] is given as “binds”.

B2: MxiH V68C (natural protein)
chain: B1 chain with C32L, V68C
notes: MxiH, needle subunit of the T3SS, Shigella flexneri, with valine 68 changed to cysteine; gene synthesized and cloned into pACT3 via NdeI and HindIII; Printed mass of the unlabelled subunit is 9137.5 Da; source: S. flexneri, expressed from pACT3 with 200 μM IPTG; needles purified
As to B2, in data set [1], the binding result is listed as “binds”.

B3: MxiH, needle subunit of the Shigella flexneri type III secretion system (wild type, serotype 5) (natural protein)
chain: B1 chain with C32L
modifications: uniformly 13C,15N labelled
notes: MxiH, needle subunit of the T3SS, Shigella flexneri serotype 5; expressed from pACT3mxiH; arranged as a helical polymer (needle); Helical polymer; also called WT MxiH; native MxiH needles; source: S. flexneri ΔmxiH (pACT3mxiH), 200 μM IPTG, M9-type minimal medium; in vivo assembled needles shaved from the bacterial surface and purified
As for B3, in data set [2], the binding result is given as “binds”.
